Test results taken from patent publication US20020031803A1.

How the values were obtained:
human RB protein (human) = human RB protein (human) (UniProt P06400)
human p107 (human) = human p107 (human) (UniProt P28749)
Chain of UniProt P28749 (P28749 whole entry): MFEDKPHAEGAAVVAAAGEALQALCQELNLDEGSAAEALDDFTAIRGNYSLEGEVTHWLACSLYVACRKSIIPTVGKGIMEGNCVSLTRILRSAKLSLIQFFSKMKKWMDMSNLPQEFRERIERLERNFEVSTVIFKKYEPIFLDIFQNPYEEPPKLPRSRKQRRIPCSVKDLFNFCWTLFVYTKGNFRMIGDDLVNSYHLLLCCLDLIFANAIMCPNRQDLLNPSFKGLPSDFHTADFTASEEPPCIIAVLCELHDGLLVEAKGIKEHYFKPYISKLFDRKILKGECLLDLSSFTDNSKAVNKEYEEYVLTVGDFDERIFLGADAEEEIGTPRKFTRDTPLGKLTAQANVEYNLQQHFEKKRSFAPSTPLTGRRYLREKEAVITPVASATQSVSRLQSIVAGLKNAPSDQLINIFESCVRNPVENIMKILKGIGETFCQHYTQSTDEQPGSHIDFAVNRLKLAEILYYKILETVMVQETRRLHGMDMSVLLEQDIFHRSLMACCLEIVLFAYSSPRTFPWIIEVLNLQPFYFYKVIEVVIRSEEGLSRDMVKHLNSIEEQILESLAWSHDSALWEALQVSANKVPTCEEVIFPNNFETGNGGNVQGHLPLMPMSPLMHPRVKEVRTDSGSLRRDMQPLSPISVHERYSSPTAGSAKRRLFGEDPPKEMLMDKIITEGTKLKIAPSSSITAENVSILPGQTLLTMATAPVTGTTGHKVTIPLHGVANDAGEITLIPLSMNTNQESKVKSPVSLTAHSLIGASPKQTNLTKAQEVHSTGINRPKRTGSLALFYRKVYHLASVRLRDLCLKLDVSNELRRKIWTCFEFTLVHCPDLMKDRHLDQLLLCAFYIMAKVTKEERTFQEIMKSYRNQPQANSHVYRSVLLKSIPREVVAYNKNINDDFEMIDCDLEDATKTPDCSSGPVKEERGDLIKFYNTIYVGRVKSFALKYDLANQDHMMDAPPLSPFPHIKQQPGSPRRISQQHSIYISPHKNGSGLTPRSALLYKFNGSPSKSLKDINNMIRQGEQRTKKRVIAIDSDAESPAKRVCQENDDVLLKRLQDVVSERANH

Chain of UniProt P06400 (P06400 whole entry): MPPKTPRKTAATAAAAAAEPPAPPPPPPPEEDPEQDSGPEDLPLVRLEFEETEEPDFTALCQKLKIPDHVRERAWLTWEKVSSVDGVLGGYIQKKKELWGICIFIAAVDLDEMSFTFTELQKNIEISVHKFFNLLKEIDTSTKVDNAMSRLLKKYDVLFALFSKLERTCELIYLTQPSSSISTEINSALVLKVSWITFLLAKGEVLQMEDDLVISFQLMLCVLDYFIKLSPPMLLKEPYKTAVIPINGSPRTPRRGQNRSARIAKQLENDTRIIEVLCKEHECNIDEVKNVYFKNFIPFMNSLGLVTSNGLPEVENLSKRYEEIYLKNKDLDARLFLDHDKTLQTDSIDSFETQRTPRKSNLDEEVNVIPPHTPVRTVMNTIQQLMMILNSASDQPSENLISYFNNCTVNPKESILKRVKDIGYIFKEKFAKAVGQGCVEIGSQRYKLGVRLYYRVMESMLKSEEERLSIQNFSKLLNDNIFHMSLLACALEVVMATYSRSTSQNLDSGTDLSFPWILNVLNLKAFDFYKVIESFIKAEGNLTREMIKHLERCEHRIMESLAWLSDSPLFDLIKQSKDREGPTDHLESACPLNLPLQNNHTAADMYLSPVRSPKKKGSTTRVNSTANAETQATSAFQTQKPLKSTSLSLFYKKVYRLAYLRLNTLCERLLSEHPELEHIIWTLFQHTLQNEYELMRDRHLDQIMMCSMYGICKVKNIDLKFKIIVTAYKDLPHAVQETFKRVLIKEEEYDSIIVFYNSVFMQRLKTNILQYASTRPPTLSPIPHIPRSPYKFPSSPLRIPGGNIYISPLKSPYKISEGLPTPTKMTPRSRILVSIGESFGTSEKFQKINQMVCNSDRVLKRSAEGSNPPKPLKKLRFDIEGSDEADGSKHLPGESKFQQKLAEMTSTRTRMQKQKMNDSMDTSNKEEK

Substance | Observed signal compared to T, % (human RB protein (human)) | Observed signal compared to T, % (human p107 (human))
wild-type SV40 large T antigen (from UniProt P03070 1-708) (other; other documents disagree on this pair) | 100% | 100%
107-T mutant SV40 large T antigen (lysine for glutamic acid at codon 107) (from UniProt P03070 1-708) (other; other documents disagree on this pair) | 0.03% | 0%
